Residue numbers refer to the chain shown, from its start.
B1: C33B909 (antibody, V domains shown)
VH: EVQLVESGGGLVQPGRSLRLSCVASGFTFDDYAIHWVRQAPGKGLEWVSGLSWNGGNIGYADSVKGRFTISRDNAKNSLYLQMNSLKTEDTAFYYCTKDTPYGDYFDYWGQGTLVTVSS
VL: DIQMTQSPSSVWASVGDRVTITCRASQGISSWLAWYQQQPGKAPNLLIYRSSSLQSGVPSRFSGSGSGTDFTLTISSLQPEDFATYYCQQDNSFPYTFGQGTKLEIKR
notes: OMNIMouse mAb; HC C33H249, LC C33L115 (same IDs as C33B901); the campaign was cloned into both IgG1 and IgG4 PAA
B2: C33B910 (antibody, V domains shown)
VH: B1 VH with V23A, A24G, M83L, T97A, T100S
VL: B1 VL with V11E, Q39K, N45K, R50G, S51A, L54W
notes: OMNIMouse mAb; HC C33H250, LC C33L116 (same IDs as C33B902)
B3: C3CB8 (bispecific antibody, human IgG4 S228P, lambda, F234A L235A)
heavy 1: not shown
light 1: SYELTQPPSVSVSPGQTASITCSGHKLGDKYACWYQQKPGQSPVVVIYKDSKRPSGIPERFSGSNFGNTATLTISGTQAMDEADYYCQAWDSSTVVFGGGTKLTVLGQPKAAPSVTLFPPSSEELQANKATLVCLISDFYPGAVTVAWKADSSPVKAGVETTTPSKQSNNKYAASSYLSLTPEQWKSHRSYSCQVTHEGSTVEKTVAPTECS
heavy 2: EVQLVESGGGLVQPGGSLRLSCAASGFTFNTYAMNWVRQAPGKGLEWVARIRSKYNNYATYYAASVKGRFTISRDDSKNSLYLQMNSLKTEDTAVYYCARHGNFGNSYVSWFAYWGQGTLVTVSSASTKGPSVFPLAPCSRSTSESTAALGCLVKDYFPEPVTVSWNSGALTSGVHTFPAVLQSSGLYSLSSVVTVPSSSLGTKTYTCNVDHKPSNTKVDKRVESKYGPPCPPCPAPEAAGGPSVFLFPPKPKDTLMISRTPEVTCVVVDVSQEDPEVQFNWYVDGVEVHNAKTKPREEQFNSTYRVVSVLTVLHQDWLNGKEYKCKVSNKGLPSSIEKTISKAKGQPREPQVYTLPPSQEEMTKNQVSLTCLVKGFYPSDIAVEWESNGQPENNYKTTPPVLDSDGSFLLYSKLTVDKSRWQEGNVFSCSVMHEALHNHYTQKSLSLSLGK
light 2: QTVVTQEPSLTVSPGGTVTLTCRSSTGAVTTSNYANWVQQKPGQAPRGLIGGTNKRAPGTPARFSGSLLGGKAALTLSGVQPEDEAEYYCALWYSNLWVFGGGTKLTVLGQPKAAPSVTLFPPSSEELQANKATLVCLISDFYPGAVTVAWKADSSPVKAGVETTTPSKQSNNKYAASSYLSLTPEQWKSHRSYSCQVTHEGSTVEKTVAPTECS
B4: C3CB16 (bispecific antibody, human IgG4 S228P, lambda, F234A L235A)
heavy 1: not shown
light 1: not shown
heavy 2: B3 heavy 2
light 2: B3 light 2
B5: C3CB89 (bispecific antibody, human IgG4 S228P, kappa, lambda, F234A L235A)
heavy 1: not shown
light 1: not shown
heavy 2: B3 heavy 2
light 2: B3 light 2
B6: C3CB87 (bispecific antibody, human IgG4 S228P, kappa, lambda, F234A L235A)
heavy 1: not shown
light 1: not shown
heavy 2: B3 heavy 2
light 2: B3 light 2
B7: C3CB5 (bispecific antibody, human IgG4 S228P, lambda, F234A L235A)
heavy 1: not shown
light 1: B3 light 1 with H25D, A32V, Y48H, K49Q, S51R
heavy 2: B3 heavy 2
light 2: B3 light 2
B8: C3CB10 (bispecific antibody, human IgG4 S228P, lambda, F234A L235A)
heavy 1: not shown
light 1: B3 light 1 with H25D, K49Q, S51R
heavy 2: B3 heavy 2
light 2: B3 light 2
B9: C3CB91 (bispecific antibody, human IgG4 S228P, lambda, F234A L235A)
heavy 1: not shown
light 1: SYELTQPPSVSVSPGQTASITCSGDNLGNEHVCWYHQKPGQSPVLVIYQNNKRPSGIPERFSGSNSGNTATLSISGTQATDEADYYCQAWDSTTAVFGGGTKLTVLGQPKAAPSVTLFPPSSEELQANKATLVCLISDFYPGAVTVAWKADSSPVKAGVETTTPSKQSNNKYAASSYLSLTPEQWKSHRSYSCQVTHEGSTVEKTVAPTECS
heavy 2: B3 heavy 2
light 2: B3 light 2
B10: C3CB14 (bispecific antibody, human IgG4 S228P, lambda, F234A L235A)
heavy 1: not shown
light 1: B3 light 1 with H25D, D29N, C33S, V45L, K49Q, S51T, F61V, F66S, Y86H
heavy 2: B3 heavy 2
light 2: B3 light 2
B11: C3CB90 (bispecific antibody, human IgG4 S228P, lambda, F234A L235A)
heavy 1: not shown
light 1: SYELTQPPSVSVSPGQTASITCSGDELGDMYACWYQQKPGQSPLVVIYQDSKRPSGIPERFSGSNSGNTATLTISGTQAMDEAAYYCQTWDTRIAVFGGGTNLTVLGQPKAAPSVTLFPPSSEELQANKATLVCLISDFYPGAVTVAWKADSSPVKAGVETTTPSKQSNNKYAASSYLSLTPEQWKSHRSYSCQVTHEGSTVEKTVAPTECS
heavy 2: B3 heavy 2
light 2: B3 light 2
B12: C3CB11 (bispecific antibody, human IgG4 S228P, lambda, F234A L235A)
heavy 1: not shown
light 1: B3 light 1 with H25D, V45L, K49Q, S51G, T69K, S92R, S93N
heavy 2: B3 heavy 2
light 2: B3 light 2
B13: C33B915 (antibody, V domains shown)
VH: EVQLVESGGGLVQPGRSLRLSCAASGFTFDDYAMHWVRQVPGEGLEWVSGISWNGGDMVYADSVKGRFTISRDNAKNSLYLQMNSLRPEDTALYYCVKDMPYFDFLTGSDYYYYGMDVWGQGTTVTVSS
VL: SYELTQPPSVSVSPGQTASITCSGDNLGNEHVCWYHQKPGQSPVLVIYQNNKRPSGIPERFSGSNSGNTATLSISGTQATDEADYYCQAWDSTTAVFGGGTKLTVLG
notes: OMNIMouse mAb; HC C33H255, LC C33L121 (same IDs as C33B907); also called C33F553
B14: C33B913 (antibody, V domains shown)
VH: EVQLLESGGGLVQPGGSLKLSCTASGFTFRSYAMSWVRQAPGKGLEWVSAINGYGDGRYYADSVKGRFTISRDNSKNTLYLQMNSLRAEDTAVYSCAKDQGFGELFFDYWGQGTLVTVSS
VL: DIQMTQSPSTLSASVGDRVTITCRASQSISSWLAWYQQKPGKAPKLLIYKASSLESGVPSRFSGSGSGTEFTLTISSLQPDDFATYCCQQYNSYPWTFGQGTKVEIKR
notes: OMNIMouse mAb; HC C33H253, LC C33L119 (same IDs as C33B905); also called C33F551
B15: C33B914 (antibody, V domains shown)
VH: QVQLVESGGGVVQPGRSLRLSCAASGFTFSYYGMHWVRQAPDKGLEWVAVIWFDGNNKYYADSVKGRFTISRDNSKNTLYLQMNSLRAEDTAVYYCARDRELLFDYWGQGTLVTVSS
VL: SYELTQPPSVSVSPGQTASITCSGDELGDMYACWYQQKPGQSPLVVIYQDSKRPSGIPERFSGSNSGNTATLTISGTQAMDEAAYYCQTWDTRIAVFGGGTNLTVLG
notes: OMNIMouse mAb; HC C33H254, LC C33L120 (same IDs as C33B906); also called C33F552

Columns and labels:
Cyno CD33 full length = biological target: T1, Cyno CD33 full length (cynomolgus monkey); experiment: flow cytometry on HEK293F cells expressing cyno CD33
T1 construct: Stably expressed on HEK293F cells by lentiviral transduction; also called Cyno CD33 (on HEK293F cells)
Description: (§1) The purified antibodies were assessed for binding to stably transfected HEK293F cells expressing human CD33 or cyno CD33 (generation described above) along with the parental HEK293F as negative control. Cells were harvested from tissue culture flasks using non-enzymatic dissociation buffer (Thermo Scientific). The flasks were rinsed twice with PBS and dissociation buffer was added to the flask, and the flask was incubated for 10 minutes at 37° C. until the cells became non-adherent. The cells were centrifuged at 300 g for 5 minutes and resuspended at 1.0×10⁶ cells/ml in staining buffer (Becton Dickinson; Franklin Lakes, N.J.). 50,000 cells/well of each cell type was plated in 50 μl of staining buffer in round bottom plates (Becton Dickinson). 50 μl of 2× concentration test mAb or isotype control was added at 3 dilutions and zero (120 nM, 12 nM, and 1.2 nM and 0 nM), and the resultant solution was incubated 30 min at 4° C. 100 μl staining buffer was added to all wells of each plate, the plates were spun at 300 g for 5 min, the buffer was removed, 200 μl staining buffer was added to all wells of each plate, the plates were spun at 300 g for 5 min, and the buffer was removed. 50 μl of 2 μg/ml of Goat-anti-human Fc AF647 secondary antibody (Jackson Immunoresearch; West Grove, Pa.) was added to all wells of the plates, and the plates were incubated for 30 min at 4° C. 100 μl staining buffer was added to all wells of the plates, the plates were spun at 300 g for 5 min, and the buffer was removed. 200 μl running buffer (running buffer is Staining buffer, 1 mM EDTA, 0.1% Pluronic Acid) was added to all wells of the plates, the plates were spun at 300 g for 5 min, and the buffer was removed. 30 ul running buffer containing Sytox Green live/dead dye (ThermoFisher) was added to all wells with cells and the plates were read on an iQue IntelliCyt flow cytometer. Cells were gated on forward vs. side scatter to eliminate debris, then on singlets and then on live cells which excluded the Sytox stain. Antibody binding was assessed by the mean fluorescence intensity in the AF647 channel. […]

Human CD33 full length = biological target: T2, Human CD33 full length (human, UniProt P20138 18-364); experiment: flow cytometry on HEK293F cells expressing human CD33
T2 construct: Stably expressed on HEK293F cells by lentiviral transduction; also called Human CD33 (on HEK293F cells)
Description: as §1

human CD33 [1] = biological target: T3, human CD33 (human, UniProt P20138 18-364); experiment: cell-based or functional assay
human CD33 [2] = biological target: T3, human CD33; experiment: cell-based or functional assay; remark: listed apart in the source

T3 sequence (P20138 18-364 limits assumed): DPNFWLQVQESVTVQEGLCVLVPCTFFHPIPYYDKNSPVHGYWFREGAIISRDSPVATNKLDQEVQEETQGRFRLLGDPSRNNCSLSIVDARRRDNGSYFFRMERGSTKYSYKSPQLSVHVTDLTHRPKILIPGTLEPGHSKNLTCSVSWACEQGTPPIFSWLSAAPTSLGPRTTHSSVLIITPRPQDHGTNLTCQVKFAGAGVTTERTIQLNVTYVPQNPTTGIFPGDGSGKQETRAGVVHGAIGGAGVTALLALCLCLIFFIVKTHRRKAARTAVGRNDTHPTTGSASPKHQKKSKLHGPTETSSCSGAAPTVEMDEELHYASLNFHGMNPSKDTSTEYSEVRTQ
T2 sequence (P20138 18-364 limits assumed): as above
T1 sequence (chain, as listed by the source limits assumed): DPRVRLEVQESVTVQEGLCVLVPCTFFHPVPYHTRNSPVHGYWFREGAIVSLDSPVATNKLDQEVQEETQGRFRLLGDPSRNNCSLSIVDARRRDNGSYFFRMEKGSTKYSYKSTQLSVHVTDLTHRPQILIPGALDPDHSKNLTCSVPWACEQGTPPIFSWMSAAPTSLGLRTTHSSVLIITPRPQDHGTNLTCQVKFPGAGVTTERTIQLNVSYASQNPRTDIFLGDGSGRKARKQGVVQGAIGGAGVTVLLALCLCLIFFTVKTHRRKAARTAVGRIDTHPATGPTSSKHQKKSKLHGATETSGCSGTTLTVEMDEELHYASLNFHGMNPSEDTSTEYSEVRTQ

Binder | mean fluorescence intensity at 0.6 nM mAb (Cyno CD33 full length) | mean fluorescence intensity at 6 nM mAb (Cyno CD33 full length) | mean fluorescence intensity at 60 nM mAb (Cyno CD33 full length) | mean fluorescence intensity at 0.6 nM mAb (Human CD33 full length) | mean fluorescence intensity at 6 nM mAb (Human CD33 full length) | mean fluorescence intensity at 60 nM mAb (Human CD33 full length) | Cytotoxicity EC50 (nM), T-cell mediated cytotoxicity of MOLM-13 (human CD33 [1]) | also measured
B1 | 116 MFI | 135 MFI | 180 MFI | 154 MFI | 170 MFI | 176 MFI | – | –
B2 | 117 MFI | 135 MFI | 202 MFI | 151 MFI | 183 MFI | 214 MFI | – | –
B3 | – | – | – | – | – | – | 0.513 nM | –
B4 | – | – | – | – | – | – | 0.667 nM | –
B5 | – | – | – | – | – | – | 0.41 nM | –
B6 | – | – | – | – | – | – | 0.067 nM | –
B7 | – | – | – | – | – | – | 1.26 nM | –
B8 | – | – | – | – | – | – | 0.473 nM | –
B9 | – | – | – | – | – | – | 0.35 nM | –
B10 | – | – | – | – | – | – | 0.538 nM | –
B11 | – | – | – | – | – | – | 10.6 nM | –
B12 | – | – | – | – | – | – | – | Primary AML Cell Killing EC50 (nM), ex vivo AML patient whole blood (human CD33 [2]): 3.96 nM
B13 | 36200 MFI | 35700 MFI | 37500 MFI | 138000 MFI | 363000 MFI | 390000 MFI | – | –
B14 | 35200 MFI | 36900 MFI | 40700 MFI | 205000 MFI | 409000 MFI | 519000 MFI | – | –
B15 | 22100 MFI | 33400 MFI | 45000 MFI | 153000 MFI | 315000 MFI | 304000 MFI | – | –
